Legend:
[1] = target: T1, Lc-Jun (bJun fused downstream of mLumin (151-233)) (UniProt P05412 257-318); experiment: split reporter (BiFC, NanoBiT); mLumin-based BiFC from the bicistronic vector pBudCE4.1 (BEVL-BiFC) in living COS-7 cells; 100 ng vector (also 300 ng) with 30 ng pmCerulean-C1 as internal control; imaged 16 h after cotransfection; BiFC efficiency = fluorescence intensity ratio of mLumin to mCerulean; conditions: partners not purified
T1 construct: primers are in the Supporting Information; also called Lc-bJun; source: COS-7, transfected (pBudCE4.1 bicistronic vector), in living cells; not shown: mLumin (151-233) (Lc), N-terminal, kept
T1 sequence (P05412 257-318): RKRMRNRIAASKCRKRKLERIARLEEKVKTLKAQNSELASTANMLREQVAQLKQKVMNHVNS

[2] = target: T2, Jun-Lc (bJun fused upstream of mLumin (151-233)) (UniProt P05412 257-318); experiment: as above; conditions: partners not purified
T2 construct: primers are in the Supporting Information; also called bJun-Lc; source: COS-7, transfected (pBudCE4.1 bicistronic vector), in living cells; not shown: mLumin (151-233) (Lc), C-terminal, kept
T2 sequence (P05412 257-318): as above

B1: Ln-Fos (bFos fused downstream of mLumin (1-151)) (domain or fragment, UniProt P01100 118-210, looked up)
chain: GRAQSIGRRGKVEQLSPEEEEKRRIRRERNKMAAAKCRNRRRELTDTLQAETDQLEDEKSALQTEIANLLKEKEKLEFILAAHRPACKIPDDL
notes: primers are in the Supporting Information; also called Ln-bFos; source: COS-7, transfected (pBudCE4.1 bicistronic vector), in living cells; not shown: mLumin (1-151) (Ln), N-terminal, kept
fold contrast in BiFC efficiency over ΔFos/Jun [1]: ~25 fold
fold contrast in BiFC efficiency over ΔFos/Jun [2]: ~25 fold

From PMC3958255 (Sensors (Basel, Switzerland), 2014)
